Assay results published in article PMC314469, “Protein Interaction Networks by Proteome Peptide Scanning” (PLoS Biology, 2004).

Tests used:
[1] = molecular target: endophilin SH3 (SH3G2_HUMAN), Q99962; assay: SPOT array
[2] = molecular target: T1, amphyphisin SH3 (AMPH_HUMAN), P49418; assay: SPOT array
T1 chain: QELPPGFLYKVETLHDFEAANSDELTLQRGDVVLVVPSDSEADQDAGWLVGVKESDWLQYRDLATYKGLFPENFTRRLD

| Binder | normalised SPOT signal, Boehringer light units (BLU); mean over the file's lines of this peptide [1] | normalised SPOT signal, Boehringer light units (BLU); mean over the file's lines of this peptide [2] |
| --- | --- | --- |
| NSRNPRRPPPSSVN [Q96T16 198-211] | 464 | 78.8 |
| NSSHIKRPMNAFMV [Q9UN79 402-415] | 176 | 37.1 |
| NSSRPGRPPKRSLG [Q96NX9 174-188] | 18800 | 4020 |
| NSSSFKRPDGEMNI [O00463 504-517] | 39.5 | 7.2 |
| NTAKPTRPPSESSS [Q9Y2E7 460-474] | 141 | 48.6 |
| NTFHILRPTKAPGF [Q9Y2L0 734-747] | 256 | 194 |
| NVLVPSRPPRNPYD [BAC03435 232-246] | 2920 | 4650 |
| NVPIPERPPPVPPP [Q96BJ8 361-375] | 84 | 37.6 |
| NVSSFRRPRRSSDK [Q9P2Y5 686-699] | 105 | 2350 |
| ARLYLRRPAADGAE [Q14181 572-585] | 91.8 | 43 |
| NYKNIKRPPGDIMF [Q9Y310 97-110] | 36 | 19 |
| PAAAPRRPFSWEDV [O95696 687-700] | 50.4 | 28 |
| PAALLRRPGLGRLV [P30049 3-16] | 81.5 | 4.9 |
| PAALLYRPVRQYVY [Q9NZB2 597-610] | 430 | 379 |
| PAAPPKKPPRPGAP [Q05397 868-882] | 792 | 2460 |
| PAAPPKRPAVASAR [P27816 749-762] | 2200 | 64.4 |
| PAAPPRRPPQSASS [Q02080 268-282] | 1450 | 3320 |
| PAARPRRPPTTLPP [Q9HCM5 24-37] | 7270 | 109 |
| PAASPRRPAPRTGP [Q96S08 21-34] | 48.9 | 21.1 |
| PAGELSRPKKDMSD [P78325 461-474] | 196 | 105 |
| ARNQLRRPQYRPQY [P16989 219-232] | 27.2 | 13 |

| Binder | normalised SPOT signal, Boehringer light units (BLU); mean over the file's lines of this peptide [1] | normalised SPOT signal, Boehringer light units (BLU); mean over the file's lines of this peptide [2] |
| --- | --- | --- |
| PAHPFRRPKLSGRS [Q9ULT6 397-410] | 64.8 | 49.5 |
| PALSPTRPPKKPLD [O60593 320-334] | 1720 | 599 |
| PAPGLRRPLSPPAA [Q9UK39 24-37] | 104 | 57.1 |
| PAPPPVKPPPSPVN [Q8TF74 224-238] | 182 | 43.7 |
| PAPRIKRPRLQVVK [Q9BR83 136-149] | 27.2 | 70.5 |
| PAPRLRRPGRVRPH [Q8WZ58 338-351] | 71.1 | 71.5 |
| PAPSLPRPERKSIV [Q99941 295-308] | 143 | 152 |
| PAQLPRRPAQRPGE [O00456 575-588] | 28.3 | 29.4 |
| PARPPAKPPEDEPD [Q14184 101-115] | 45.8 | 56.7 |
| PASAFDRPARTRGQ [Q9H7P7 809-822] | 98.4 | 2010 |
| ARPELRRPGVQGIP [Q9Y358 352-365] | 73.8 | 25.7 |
| PASALPRPPRLSGS [Q9NQ45 25-38] | 92.9 | 4470 |
| PATAPARPLRLPSG [Q9UPV8 1233-1246] | 7710 | 11300 |
| PAVILRRPNQSQPL [Q92542 409-422] | 108 | 16.5 |
| PAVPPARPPTAQEV [Q9ULT2 697-711] | 509 | 92 |
| PAVPPGRPRRGSLP [Q9UQ51 6-19] | 7480 | 2070 |
| PSAKPRRPQDKSQG [Q9P2D1 825-838] | 78.4 | 38.3 |
| PSKEILRPRRTLQK [P01031 668-681] | 181 | 1040 |
| PSLTPRRPSSTRAR [Q16623 232-245] | 1390 | 869 |
| PSPAPPRPARVPAH [Q13078 876-889] | 3100 | 2020 |
| PSSRPRRPAVYTSV [Q9UKQ9 224-237] | 260 | 39.7 |
